# In patent US12673985B2, “Method for the treatment or prophylaxis of cancer by targeting the extracellular portion of keratin 14 (KRT14) residing on cancer cells” (Hudson Institute of Medical Research, priority 2019, dated 2026):
# Entries after “also recorded” stand apart in the source; their conditions may differ.
# T1: KRT14 (Homo sapiens, UniProt P02533)
# T1 sequence (P02533 1-472): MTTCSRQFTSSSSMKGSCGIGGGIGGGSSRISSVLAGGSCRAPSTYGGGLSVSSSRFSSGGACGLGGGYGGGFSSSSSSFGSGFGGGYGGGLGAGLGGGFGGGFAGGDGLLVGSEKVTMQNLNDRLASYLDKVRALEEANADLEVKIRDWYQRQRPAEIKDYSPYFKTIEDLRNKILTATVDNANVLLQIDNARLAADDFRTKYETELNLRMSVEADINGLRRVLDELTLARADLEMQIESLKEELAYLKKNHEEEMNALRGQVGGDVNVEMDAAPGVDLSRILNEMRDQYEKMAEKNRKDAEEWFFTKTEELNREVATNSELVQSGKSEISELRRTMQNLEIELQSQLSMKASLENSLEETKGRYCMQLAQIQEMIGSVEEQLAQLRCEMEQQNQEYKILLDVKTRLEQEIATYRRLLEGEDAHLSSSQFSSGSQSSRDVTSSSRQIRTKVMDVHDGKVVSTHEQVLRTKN
# T2: full-length recombinant KRT14 protein (Homo sapiens, UniProt P02533)
# T2 construct: A 1 μg aliquot of full-length recombinant KRT14 protein (Abcam #ab73637) was separated by SDS PAGE; purchased Abcam ab73637
# T2 sequence (P02533 1-472): T1 sequence (P02533 1-472)
# B1: mAb AN-17: monoclonal anti-KRT14 antibody; heavy chain variable region SEQ ID NO:3, light chain variable region SEQ ID NO:5 (clone AN-17A RG4.E5b.A7.B4) (antibody, listed as Mus musculus, V domains shown)
# VH: QVQLKESGPGLVAPSQSLSITCTVSGFSLSRYSVHWVRQPPGKGLEWLGMIWGGGSTDYNSALKSRLSISKDNSKSQVFLKMNSLQTDDTAMYYCARKDYGYSYFDYWGQGTTLTVSS
# VL: DVLMTQTPLSLPVSLGDQASISCRSSQSIVHSNGNTYLEWYLQKPGQSPKLLIYKVSNRFSGVPDRFSGSGSGTDFTLKISRVEAEDLGVYYCFQGSHVPFTFGSGTKLEIKRADAAPTVS
# Key:
# ID8 ovarian tumour = details: mouse, in vivo
# Procedure: Control mice received vehicle (PBS) alone. At time points from 4 hr to 7 days post-injection, mice were culled and selected tissues (liver, kidney, spleen, intestine, ovary+fallopian tube/ovarian tumour (as relevant), brain, heart, lung) were harvested. Tissue distribution and clearance were assessed by ALEXA647 or ALEXA750 fluorescence using an IVIS Lumina III Imaging System (Perkin Elmer). Bright-field (auto-exposure) and fluorescence imaging (ALEXA647 ex640, em670; or ALEXA750 ex740, em790 nm). Spectral unmixing and image analysis were performed as previously described (PMID: 30602661; Wilson et al., Cancers (Basel). 2018 Dec. 31; 11(1), E32). Background average radiant efficiency from vehicle-treated animals were subtracted from fluorescence measurements in each case, and the resulting data plotted for comparison.
# KRT14 = molecular target: T1, KRT14; assay: Immunofluorescence staining of ovarian cancer cell lines SKOV-3, Ovcar4 and Cov362.3; assay type: cell-based; parameters: endogenous in cells; host or cells: SKOV-3, Ovcar4, Cov362.3; details: 1 μg/ml
# Procedure: The ovarian cancer cell lines SKOV-3, Ovcar4 and Cov362.3 were seeded onto 96 well black fluortrac imaging plates. Intact or fixed (1% paraformaldehyde; PFA) and permeabilized (0.1% Triton X) cells were stained using mAb AN-17. For fixed cells, samples were blocked in 10% fetal bovine serum (FBS) and then stained with 1 μg/ml mAb AN-17 for one hour at room temperature. Cells were subsequently washed with PBS and stained with the Alexa Fluor®-647 goat anti-mouse secondary at 1:2000 for one hour at room temperature. For intact cells, samples were stained with 1 μg/ml mAb AN-17 conjugated to Alexa-647 in PBS containing 1% FBS for two hours at 37° C., the medium was replaced with fresh PBS/1% FBS and cells were immediately imaged. Samples were imaged using the Cytation 3 multimode reader at 4× magnification.
# KRT14+ CTCs = assay: Flow cytometry detection of circulating tumour cells in blood of mice bearing ID8 iRFP720+ epithelial ovarian tumours; assay type: cell-based; details: confirmed by iRFP720+ status
# Procedure: Flow cytometry was carried out according to standard protocols (PMID: 30602661), with data acquired using a BD LSRFortessa X-20 (BD Biosciences) and analysed using FlowJo software v10.5.0 (BD Biosciences). Samples assessed for KRT14+ cell populations included OVCAR3, CAOV4, ID8 mouse ovarian cancer cells, ascites-derived ovarian cancer cells derived from a clinical specimen (designated #3.1937-07) and cardiac blood from a mice bearing 12-week old epithelial ovarian tumours. For cell lines, 1×10^6 cells per cell line were incubated with either mAb AN-17 (1:200 dilution) or a commercially available anti-KRT14 polyclonal antibody (Sigma SAB4501657; 1:50 dilution) as a positive control for 45 mins in non-immune serum at room temperature. The secondary antibodies, goat anti-mouse Alexa647 (mAb AN-17) or goat anti-rabbit IgG Alexa 488 (commercial Ab), were diluted 1:500 and incubated for 30 minutes. For blood samples, 2×10^6 cells were incubated with an Alexa Fluor®488-conjugated mAb AN-17 antibody for 45 minutes. Following PBS washes, cells were resuspended in PBS/2% FBS data was acquired using a BD LSRFortessa X-20 (BD Biosciences) flow cytometer.
# Expression of extracellular KRT14 also marks the circulating tumour cell (CTC) population.
# [1] = molecular target: T2, full-length recombinant KRT14 protein; assay: Western blotting for KRT14 detection; assay type: binding; details: dilutions 1:1000 to 1:10,000; 1 μg protein
# Procedure: Western Blot analyses. SDS-PAGE and western blotting were performed as previously described in Bilandzic et al. (2013) Mol Endocrinol, 2013. 27(3):466-79). Blots were probed using antibodies against KRT14 (1:1000, SAB4501657), mAb AN-17 and β-actin (1:20,000; Sigma-Aldrich, Castle Hill, Australia). Secondary antibodies HRP-conjugated goat anti-mouse, anti-rabbit and donkey anti-goat (1:50,000; Merck Millipore, Kilsyth, Australia) were used Bilandzic et al. (2013) Mol Endocrinol, 2013. 27(3):466-79). Protein bands were detected using Clarity Western ECL blotting substrate (Biorad #1705061) and visualized using a ChemiDoc (Trade Mark) MP System (Bio-Rad, #1708280).
# A 1 μg aliquot of full-length recombinant KRT14 protein (Abcam #ab73637) was separated by SDS PAGE and transferred to PVDF membrane using standard procedures (PMID: 23952987). The membrane was probed with mAb AN-17 at dilutions of 1:1000, 1:5000 and 1:10,000. Secondary antibody was goat anti-mouse HRP conjugate (1:50,000 dilution), with detection of KRT14 using chemiluminescence according to standard protocols (PMID: 23952987; Rainczuk et al., J Proteome Res. 2013; 12(9):4074-88).
# [2] = Assessment of mAb AN-17 toxicity, single intraperitoneal dose; assay type: in vivo, mice
# Procedure: Doses of 0.5, 1.0. 2.5, 5.0 and 10 mg/kg were assessed. After 7 days mice were culled, and examined post mortem for any evidence of toxicity (macroscopic tissue appearance, presence of inflammation, or any obvious lesions).
molecule,measurement,setting,value
B1,initial levels in tumour tissue vs reproductive tract of mice without tumours,ID8 ovarian tumour,2 orders of magnitude
same,staining localization,KRT14; fixed and permeabilized cells,Specific intracellular cytoplasmic localization
same,staining localization,KRT14; intact live cells,predominant cell surface localization
same,identification of circulating tumour cells from whole blood,KRT14+ CTCs,able to detect and isolate KRT14+ CTCs
same,identification of circulating tumour cells from whole blood,KRT14+ CTCs; listed as mAB AN-17,able to correctly identify iRFP+ cells from whole blood
same,detection of KRT14 protein by western blotting,[1],successfully detected KRT14 protein
same,maximum tolerated dose,[2]; doses up to 10 mg/kg i.p.,not reached
same,evidence of toxic effects,"[2]; single i.p. dose 0.5, 1.0, 2.5, 5.0 and 10 mg/kg, up to 7 days and post mortem",No evidence of toxic effects; also recorded: no toxicity noted at any dose or any time point
